Reference: patent publication US20110118447A1

Biological target: binding partner of C5A (XPA23)
Experiment: Biacore K-off

Row | fold difference in affinity vs original | Binder
1 | 1.01 fold | C5A (XPA23) VL T52Y (antibody, V domains shown) VH: EVQLLESGGGLVQPGGSLRLSCAASGFTFSKYFMFWVRQAPGKGLEWVSVISPSGGMTRYADSVKGRFTISRDNSKNTLYLQMNSLRAEDTAVYYCARVGYGGNSDYWGQGTLVTVSS VL: DIQMTQSPSSVSASVGDRLTIICRASQDINRWLAWYQQTPGNAPKLLIHSAYSLQSGVPSRFSGSGSGTDFTLTINSLQPEDFATYYCQQADSFPLTFGGGTKVEIK
2 | 1.08 fold | C5A (XPA23) VL A91D (antibody, V domains shown) VH: EVQLLESGGGLVQPGGSLRLSCAASGFTFSKYFMFWVRQAPGKGLEWVSVISPSGGMTRYADSVKGRFTISRDNSKNTLYLQMNSLRAEDTAVYYCARVGYGGNSDYWGQGTLVTVSS VL: DIQMTQSPSSVSASVGDRLTIICRASQDINRWLAWYQQTPGNAPKLLIHSATSLQSGVPSRFSGSGSGTDFTLTINSLQPEDFATYYCQQDDSFPLTFGGGTKVEIK
3 | 0.67 fold | C5A (XPA23) VL A91T (antibody, V domains shown) VH: EVQLLESGGGLVQPGGSLRLSCAASGFTFSKYFMFWVRQAPGKGLEWVSVISPSGGMTRYADSVKGRFTISRDNSKNTLYLQMNSLRAEDTAVYYCARVGYGGNSDYWGQGTLVTVSS VL: DIQMTQSPSSVSASVGDRLTIICRASQDINRWLAWYQQTPGNAPKLLIHSATSLQSGVPSRFSGSGSGTDFTLTINSLQPEDFATYYCQQTDSFPLTFGGGTKVEIK
4 | 1.13 fold | C5A (XPA23) VL S53E (antibody, V domains shown) VH: EVQLLESGGGLVQPGGSLRLSCAASGFTFSKYFMFWVRQAPGKGLEWVSVISPSGGMTRYADSVKGRFTISRDNSKNTLYLQMNSLRAEDTAVYYCARVGYGGNSDYWGQGTLVTVSS VL: DIQMTQSPSSVSASVGDRLTIICRASQDINRWLAWYQQTPGNAPKLLIHSATELQSGVPSRFSGSGSGTDFTLTINSLQPEDFATYYCQQADSFPLTFGGGTKVEIK
5 | 0.95 fold | C5A (XPA23) VL S53T (antibody, V domains shown) VH: EVQLLESGGGLVQPGGSLRLSCAASGFTFSKYFMFWVRQAPGKGLEWVSVISPSGGMTRYADSVKGRFTISRDNSKNTLYLQMNSLRAEDTAVYYCARVGYGGNSDYWGQGTLVTVSS VL: DIQMTQSPSSVSASVGDRLTIICRASQDINRWLAWYQQTPGNAPKLLIHSATTLQSGVPSRFSGSGSGTDFTLTINSLQPEDFATYYCQQADSFPLTFGGGTKVEIK
6 | 3.29 fold | C5A (XPA23) VL S53R (antibody, V domains shown) VH: EVQLLESGGGLVQPGGSLRLSCAASGFTFSKYFMFWVRQAPGKGLEWVSVISPSGGMTRYADSVKGRFTISRDNSKNTLYLQMNSLRAEDTAVYYCARVGYGGNSDYWGQGTLVTVSS VL: DIQMTQSPSSVSASVGDRLTIICRASQDINRWLAWYQQTPGNAPKLLIHSATRLQSGVPSRFSGSGSGTDFTLTINSLQPEDFATYYCQQADSFPLTFGGGTKVEIK
7 | 0.1 fold | C5A (XPA23) VL A91E (antibody, V domains shown) VH: EVQLLESGGGLVQPGGSLRLSCAASGFTFSKYFMFWVRQAPGKGLEWVSVISPSGGMTRYADSVKGRFTISRDNSKNTLYLQMNSLRAEDTAVYYCARVGYGGNSDYWGQGTLVTVSS VL: DIQMTQSPSSVSASVGDRLTIICRASQDINRWLAWYQQTPGNAPKLLIHSATSLQSGVPSRFSGSGSGTDFTLTINSLQPEDFATYYCQQEDSFPLTFGGGTKVEIK
8 | 1.12 fold | C5A (XPA23) VL A91H (antibody, V domains shown) VH: EVQLLESGGGLVQPGGSLRLSCAASGFTFSKYFMFWVRQAPGKGLEWVSVISPSGGMTRYADSVKGRFTISRDNSKNTLYLQMNSLRAEDTAVYYCARVGYGGNSDYWGQGTLVTVSS VL: DIQMTQSPSSVSASVGDRLTIICRASQDINRWLAWYQQTPGNAPKLLIHSATSLQSGVPSRFSGSGSGTDFTLTINSLQPEDFATYYCQQHDSFPLTFGGGTKVEIK
9 | 0.99 fold | C5A (XPA23) VL D92E (antibody, V domains shown) VH: EVQLLESGGGLVQPGGSLRLSCAASGFTFSKYFMFWVRQAPGKGLEWVSVISPSGGMTRYADSVKGRFTISRDNSKNTLYLQMNSLRAEDTAVYYCARVGYGGNSDYWGQGTLVTVSS VL: DIQMTQSPSSVSASVGDRLTIICRASQDINRWLAWYQQTPGNAPKLLIHSATSLQSGVPSRFSGSGSGTDFTLTINSLQPEDFATYYCQQAESFPLTFGGGTKVEIK
10 | 4.07 fold | C5A (XPA23) VL S53K (antibody, V domains shown) VH: EVQLLESGGGLVQPGGSLRLSCAASGFTFSKYFMFWVRQAPGKGLEWVSVISPSGGMTRYADSVKGRFTISRDNSKNTLYLQMNSLRAEDTAVYYCARVGYGGNSDYWGQGTLVTVSS VL: DIQMTQSPSSVSASVGDRLTIICRASQDINRWLAWYQQTPGNAPKLLIHSATKLQSGVPSRFSGSGSGTDFTLTINSLQPEDFATYYCQQADSFPLTFGGGTKVEIK
11 | 0.9 fold | C5A (XPA23) VL A91S (antibody, V domains shown) VH: EVQLLESGGGLVQPGGSLRLSCAASGFTFSKYFMFWVRQAPGKGLEWVSVISPSGGMTRYADSVKGRFTISRDNSKNTLYLQMNSLRAEDTAVYYCARVGYGGNSDYWGQGTLVTVSS VL: DIQMTQSPSSVSASVGDRLTIICRASQDINRWLAWYQQTPGNAPKLLIHSATSLQSGVPSRFSGSGSGTDFTLTINSLQPEDFATYYCQQSDSFPLTFGGGTKVEIK
12 | 1.23 fold | C5A (XPA23) VL S53Y (antibody, V domains shown) VH: EVQLLESGGGLVQPGGSLRLSCAASGFTFSKYFMFWVRQAPGKGLEWVSVISPSGGMTRYADSVKGRFTISRDNSKNTLYLQMNSLRAEDTAVYYCARVGYGGNSDYWGQGTLVTVSS VL: DIQMTQSPSSVSASVGDRLTIICRASQDINRWLAWYQQTPGNAPKLLIHSATYLQSGVPSRFSGSGSGTDFTLTINSLQPEDFATYYCQQADSFPLTFGGGTKVEIK
13 | 1.09 fold | C5A (XPA23) VL S53Q (antibody, V domains shown) VH: EVQLLESGGGLVQPGGSLRLSCAASGFTFSKYFMFWVRQAPGKGLEWVSVISPSGGMTRYADSVKGRFTISRDNSKNTLYLQMNSLRAEDTAVYYCARVGYGGNSDYWGQGTLVTVSS VL: DIQMTQSPSSVSASVGDRLTIICRASQDINRWLAWYQQTPGNAPKLLIHSATQLQSGVPSRFSGSGSGTDFTLTINSLQPEDFATYYCQQADSFPLTFGGGTKVEIK
14 | 0.1 fold | C5A (XPA23) VL A91N (antibody, V domains shown) VH: EVQLLESGGGLVQPGGSLRLSCAASGFTFSKYFMFWVRQAPGKGLEWVSVISPSGGMTRYADSVKGRFTISRDNSKNTLYLQMNSLRAEDTAVYYCARVGYGGNSDYWGQGTLVTVSS VL: DIQMTQSPSSVSASVGDRLTIICRASQDINRWLAWYQQTPGNAPKLLIHSATSLQSGVPSRFSGSGSGTDFTLTINSLQPEDFATYYCQQNDSFPLTFGGGTKVEIK
15 | 1.23 fold | C5A (XPA23) VL S53N (antibody, V domains shown) VH: EVQLLESGGGLVQPGGSLRLSCAASGFTFSKYFMFWVRQAPGKGLEWVSVISPSGGMTRYADSVKGRFTISRDNSKNTLYLQMNSLRAEDTAVYYCARVGYGGNSDYWGQGTLVTVSS VL: DIQMTQSPSSVSASVGDRLTIICRASQDINRWLAWYQQTPGNAPKLLIHSATNLQSGVPSRFSGSGSGTDFTLTINSLQPEDFATYYCQQADSFPLTFGGGTKVEIK
